Experimental data reported in US20210139588A1.

Assays:
[1] = target: 4NQ mutant (unglycosylated) PD-1 expressed on 293T cells (PD-1-Flag) (human) (UniProt Q15116); experiment: flow cytometry on 293T cells expressing the PD-1 form, labeled secondary antibody; control antibody
[2] = target: N116Q mutant PD-1 expressed on 293T cells (PD-1-Flag) (human) (UniProt Q15116); experiment: as above
[3] = target: N49Q mutant PD-1 expressed on 293T cells (PD-1-Flag) (human) (UniProt Q15116); experiment: as above
N49Q mutant PD-1 expressed on 293T cells (PD-1-Flag) (human), sequence (Q15116 25-288 N49Q): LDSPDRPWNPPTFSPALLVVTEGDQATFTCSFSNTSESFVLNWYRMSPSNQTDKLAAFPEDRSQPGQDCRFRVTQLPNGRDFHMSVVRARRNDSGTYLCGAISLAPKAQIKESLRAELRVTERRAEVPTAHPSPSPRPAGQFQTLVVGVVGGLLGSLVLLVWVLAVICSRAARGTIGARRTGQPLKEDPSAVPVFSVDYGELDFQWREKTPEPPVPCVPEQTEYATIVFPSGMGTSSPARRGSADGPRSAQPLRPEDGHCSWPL

[4] = target: N58Q mutant PD-1 expressed on 293T cells (PD-1-Flag) (human) (UniProt Q15116); experiment: as above
N58Q mutant PD-1 expressed on 293T cells (PD-1-Flag) (human), sequence (Q15116 25-288 N58Q): as the sequence (Q15116 25-288 N49Q) above, with Q25N, N34Q counted along it

[5] = target: N74Q mutant PD-1 expressed on 293T cells (PD-1-Flag) (human) (UniProt Q15116); experiment: as above
N74Q mutant PD-1 expressed on 293T cells (PD-1-Flag) (human), sequence (Q15116 25-288 N74Q): as the sequence (Q15116 25-288 N49Q) above, with Q25N, N50Q counted along it

[6] = target: wild type (glycosylated) PD-1 expressed on 293T cells (PD-1-Flag) (human) (UniProt Q15116); experiment: as above
wild type (glycosylated) PD-1 expressed on 293T cells (PD-1-Flag) (human), sequence (Q15116 25-288): as the sequence (Q15116 25-288 N49Q) above, with Q25N counted along it

[7] = target: 4NQ mutant (unglycosylated) PD-1 expressed on 293T cells (PD-1-Flag) (human) (UniProt Q15116); experiment: flow cytometry on 293T cells expressing the PD-1 variant, anti-mouse IgG-PE secondary, DAPI-negative population gated; percent of cells right of the dashed gate; 293T blank cells give 1.69
[8] = target: N116Q mutant PD-1 expressed on 293T cells (PD-1-Flag) (human) (UniProt Q15116); experiment: as above
[9] = target: N49Q mutant PD-1 expressed on 293T cells (PD-1-Flag) (human) (UniProt Q15116); experiment: as above
[10] = target: N58Q mutant PD-1 expressed on 293T cells (PD-1-Flag) (human) (UniProt Q15116); experiment: as above
[11] = target: N74Q mutant PD-1 expressed on 293T cells (PD-1-Flag) (human) (UniProt Q15116); experiment: as above
[12] = target: wild type (glycosylated) PD-1 expressed on 293T cells (PD-1-Flag) (human) (UniProt Q15116); experiment: as above

4NQ mutant (unglycosylated) PD-1 expressed on 293T cells (PD-1-Flag) (human), sequence (Q15116 other isoform, or with tags, fused parts or gaps mutant): as the sequence (Q15116 25-288 N49Q) above, with N34Q, N50Q, N92Q counted along it
N116Q mutant PD-1 expressed on 293T cells (PD-1-Flag) (human), sequence (Q15116 25-288 N116Q): as the sequence (Q15116 25-288 N49Q) above, with Q25N, N92Q counted along it

MFI [1]: 26 MFI | MFI [2]: 28 MFI | MFI [3]: 31 MFI | MFI [4]: 106 MFI | MFI [5]: 26 MFI | MFI [6]: 52 MFI | Unit (%) (cells in the positive gate) [7]: 1.53% | Unit (%) (cells in the positive gate) [8]: 2.37% | Unit (%) (cells in the positive gate) [9]: 2.73% | Unit (%) (cells in the positive gate) [10]: 17.6% | Unit (%) (cells in the positive gate) [11]: 3.25% | Unit (%) (cells in the positive gate) [12]: 10.7%
Substance: control mouse IgG (antibody)
